The values that follow come from paper PMC10163027, “Coordinated regulation of vegetative phase change by brassinosteroids and the age pathway in Arabidopsis” (Nature Communications, 2023).

B1: GST-BIN2 (enzyme, Arabidopsis, UniProt Q39011 1-380, looked up)
chain: MADDKEMPAAVVDGHDQVTGHIISTTIGGKNGEPKQTISYMAERVVGTGSFGIVFQAKCLETGETVAIKKVLQDRRYKNRELQLMRVMDHPNVVCLKHCFFSTTSKDELFLNLVMEYVPESLYRVLKHYSSANQRMPLVYVKLYMYQIFRGLAYIHNVAGVCHRDLKPQNLLVDPLTHQVKICDFGSAKQLVKGEANISYICSRFYRAPELIFGATEYTTSIDIWSAGCVLAELLLGQPLFPGENAVDQLVEIIKVLGTPTREEIRCMNPHYTDFRFPQIKAHPWHKIFHKRMPPEAIDFASRLLQYSPSLRCTALEACAHPFFDELREPNARLPNGRPFPPLFNFKQEVAGSSPELVNKLIPDHIKRQLGLSFLNQSGT
notes: BIN2, GSK3-like kinase of Arabidopsis; the BIN2 ORF was cloned into pPGH (derived from pGEX4T-2); Printed both as GST-BIN2 and BIN2-GST; a vector derived from pGEX4T-2 would put GST at the N-terminus (surmised); also called BIN2-GST; pPGH-BIN2; source: E. coli Rosetta (DE3), purified (GST resin)

In test [1] the target is T1, 6×His-TOE1 (Arabidopsis, UniProt Q9SK03 1-449).
T1 construct: TOE1 (AP2-like protein) of Arabidopsis; the TOE1 ORF was cloned into pET-30a (+); Printed both as 6×His-TOE1 and TOE1-His; pET-30a(+) may add further vector residues (surmised); also called TOE1-His; TOE1-HIS; source: E. coli Rosetta (DE3), purified (Ni-NTA)
T1 sequence (Q9SK03 whole entry): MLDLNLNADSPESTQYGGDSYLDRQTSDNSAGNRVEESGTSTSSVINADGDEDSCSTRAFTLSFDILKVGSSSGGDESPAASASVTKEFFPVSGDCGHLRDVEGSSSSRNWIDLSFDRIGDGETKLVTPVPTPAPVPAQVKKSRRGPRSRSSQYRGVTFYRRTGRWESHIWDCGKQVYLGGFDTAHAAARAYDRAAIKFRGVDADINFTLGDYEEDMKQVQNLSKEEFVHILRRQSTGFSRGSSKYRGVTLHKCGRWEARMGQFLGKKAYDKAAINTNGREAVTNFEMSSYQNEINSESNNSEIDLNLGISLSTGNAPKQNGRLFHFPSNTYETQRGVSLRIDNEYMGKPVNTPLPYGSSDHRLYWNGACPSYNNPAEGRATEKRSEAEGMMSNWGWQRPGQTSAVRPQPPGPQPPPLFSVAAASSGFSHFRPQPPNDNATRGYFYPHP
Briefly: pull-down; purified His-tagged protein incubated with resin bound with GST or GST-BIN2 at 4 °C for 4 h; washed five times with PBS-EW; blots with anti-His and anti-GST. The conditions noted are these: both partners purified.

The target in test [2] is B1. The description is as above. The conditions noted are these: both partners purified.

With B1, the binding result in test [1] is reported as “binds”.

B2: 6×His-SPL9 (natural protein, Arabidopsis, UniProt Q700W2 1-375, looked up)
chain: MEMGSNSGPGHGPGQAESGGSSTESSSFSGGLMFGQKIYFEDGGGGSGSSSSGGRSNRRVRGGGSGQSGQIPRCQVEGCGMDLTNAKGYYSRHRVCGVHSKTPKVTVAGIEQRFCQQCSRFHQLPEFDLEKRSCRRRLAGHNERRRKPQPASLSVLASRYGRIAPSLYENGDAGMNGSFLGNQEIGWPSSRTLDTRVMRRPVSSPSWQINPMNVFSQGSVGGGGTSFSSPEIMDTKLESYKGIGDSNCALSLLSNPHQPHDNNNNNNNNNNNNNNTWRASSGFGPMTVTMAQPPPAPSQHQYLNPPWVFKDNDNDMSPVLNLGRYTEPDNCQISSGTAMGEFELSDHHHQSRRQYMEDENTRAYDSSSHHTNWSL
notes: SPL9 of Arabidopsis; the SPL9 ORF was cloned into pET-30a (+); Printed both as 6×His-SPL9 and SPL9-His; pET-30a(+) may add further vector residues (surmised); also called SPL9-His; SPL9-HIS; source: E. coli Rosetta (DE3), purified (Ni-NTA)
Take B2: the binding result in test [2] is reported as “binds”.
